According to patent publication US20100184837:

Experiments:
[1] = target: GST-E2 (HCV envelope glycoprotein E2) (Hepatitis C virus) (UniProt P27958); experiment: competition; settings: decreased from 36.7% without aptamer
[2] = target: HCV envelope glycoprotein E2 (expressed on CT26-HCV-E2 cells) (Hepatitis C virus) (UniProt P27958); experiment: flow; settings: strongest binding among rounds; 8 ug ssDNA with 10^6 cells
Sequence of HCV envelope glycoprotein E2 (expressed on CT26-HCV-E2 cells) (Hepatitis C virus) (P27958 384-746): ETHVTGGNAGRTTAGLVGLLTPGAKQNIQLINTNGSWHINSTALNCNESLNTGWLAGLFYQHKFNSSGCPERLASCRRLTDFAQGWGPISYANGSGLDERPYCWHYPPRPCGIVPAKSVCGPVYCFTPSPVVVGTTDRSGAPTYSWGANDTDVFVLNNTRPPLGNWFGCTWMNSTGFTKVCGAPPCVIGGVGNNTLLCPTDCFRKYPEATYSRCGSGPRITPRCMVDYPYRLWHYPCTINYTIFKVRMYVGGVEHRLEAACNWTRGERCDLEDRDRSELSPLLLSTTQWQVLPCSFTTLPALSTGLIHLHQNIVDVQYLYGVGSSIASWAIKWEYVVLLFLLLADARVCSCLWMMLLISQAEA

Sequence of GST-E2 (HCV envelope glycoprotein E2) (Hepatitis C virus) (P27958 384-746): as above

GCGGAATTCTAATACGACTCACTATAGGGAACAGTCCGAGCCNNNNNNNNNNNNNNNNNNNNNNNNNNNNNNGGGTCAATGCGTCATA [13th round ssDNA aptamer library]
activity (% E2 binding to Huh 7.5.1 cells) [1]: 23.2
binding (% cells bound) [2]: 89
